From patent US20220281960A1 (RAMOT AT TEL AVIV UNIVERSITY, published 2022)

Target: T1, maltose binding protein (UniProt P0AEX9 27-396 = MBP)
T1 construct: also called MBP; carrier protein
Assay: ELISA on coated MBP

B1: P4-36 (antibody, V domains shown)
VH: EVQLVESGGGLVQPGRSLRLSCTDSGFTFSEYALSWVRQAPGKGLEWVGFIRSKAYGGTTEYAASVKGRFTISRDDSKSVAYLQMNSLKTEDTAVYFCTGPRPYYDSSGYYPYYFDYWGQGTLVTVSS
VL: QSALTQPRSVSGSPGQSVTISCTGSRSDVGGYDYVSWYQQHPGRVPKLMIYDVTKRPSGVPDRFSGSRSGNTASLTISGLQADDEADYYCSSFAGSSTYVVFGGGTTLTVL
notes: also called mAb P4-36; clone 3 antibody P4-36
Does B1 bind?
Result: no binding
